Assay results as given in US20140087995A1 (published 2014).
Like-named read-outs stand apart in the source and are kept apart here. Numbered stars: 1 amine (or outer) side, 2 acyl side, 3 side chain; on linkers, the order of the positions; unused ones are H or OH. Bridge positions count the residues as written; N and C are the ends. Side chains are listed from the residue outwards. Ends that are not written are not given here. * marks the point of attachment. C20 diacid = O=C(O)CCCCCCCCCCCCCCCCCCC(=O)*; γGlu = O=C(O)[C@H](CCC(=O)[*:2])N[*:1]

How the values were obtained:
[1] = molecular target: T1, human amylin 3(a) receptor (human calcitonin receptor co-expressed with RAMP-3) (human, UniProt P30988 25-474; O60896 24-148, limits assumed); assay: SPA competition vs 125I-rat amylin, membranes of BHK Amylin 3(a)/CRE-luc cells (Assay V)
T1 construct: whole, on cells; Whole BHK amylin 3(a)-receptor/CRE-luc cells in the functional assay (Assay II a); also called hAmylin-R; hAmylinR
T1 sequence (looked up) 1: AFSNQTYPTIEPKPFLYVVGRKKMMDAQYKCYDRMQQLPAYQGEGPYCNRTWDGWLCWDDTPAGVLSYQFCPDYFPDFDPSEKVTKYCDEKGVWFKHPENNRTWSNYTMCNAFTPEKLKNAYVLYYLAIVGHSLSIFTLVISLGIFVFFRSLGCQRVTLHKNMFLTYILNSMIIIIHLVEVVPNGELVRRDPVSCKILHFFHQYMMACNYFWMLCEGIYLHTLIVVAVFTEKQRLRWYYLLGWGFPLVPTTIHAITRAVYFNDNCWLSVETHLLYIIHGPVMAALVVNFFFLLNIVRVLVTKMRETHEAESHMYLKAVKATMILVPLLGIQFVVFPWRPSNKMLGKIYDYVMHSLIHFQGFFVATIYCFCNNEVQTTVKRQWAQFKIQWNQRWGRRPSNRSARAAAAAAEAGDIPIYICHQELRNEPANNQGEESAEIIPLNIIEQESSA
T1 sequence (looked up) 2: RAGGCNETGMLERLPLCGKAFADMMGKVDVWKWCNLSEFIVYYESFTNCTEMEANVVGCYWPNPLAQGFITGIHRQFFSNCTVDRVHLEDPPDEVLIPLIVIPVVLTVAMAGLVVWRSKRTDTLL
Procedure: (§1) The binding assay was performed using scintillation proximity assay (SPA) beads (RPNQ0001) from PerkinElmer and cell membranes from the Amylin 3(a)/CRE-luc cells (as described in Assay (II)) were used. Membranes were prepared in the following way; the cells were rinsed with PBS and incubated with Versene for approximately 5 min before harvesting. The cells were flushed with PBS and the cell-suspension was centrifuged for 5 min at 1000 rpm. Cells were homogenized (ultrathurrax) in a buffer containing 20 mM Na-HEPES and 10 mM EDTA (pH 7.4) and centrifuged at 20.000 rpm for 15 min. The resulting pellet was resuspended, homogenized and centrifuged (20.000 rpm, 15 min) in a buffer containing 20 mM Na-HEPES and 0.1 mM EDTA (pH 7.4, buffer 2). The resulting pellet was resuspended in buffer 2 and protein concentration was measured (BCA protein Assay, Pierce). The homogenate was kept cold during the whole procedure. The membranes were kept at −80° C. until use. The assay was performed in a 384 well Optiplate (PerkinElmer) in a total volume of 40 ul. Membranes were mixed with SPA beads. Final concentration of membranes 35 ng/μL final and SPA beads was 0.05 mg/well. […] Samples were analyzed on TopCounter™ (Packard). The IC₅₀ was calculated using (one site binding competition analysis) GraphPad Prism5 as a measure of receptor affinity.

[2] = molecular target: T1, human amylin 3(a) receptor (human …); assay: cell-based or functional assay
[3] = molecular target: T2, human calcitonin receptor (human, UniProt P30988 25-474); assay: cell-based or functional assay
T2 sequence (looked up): T1 sequence (looked up) 1

[4] = molecular target: T3, human amylin receptor (amylin 3(a) receptor: human calcitonin receptor co-expressed with RAMP-3) (human, UniProt P30988 25-474; O60896 24-148, limits assumed); assay: cell-based or functional assay
T3 sequence (looked up) 1: T1 sequence (looked up) 1
T3 sequence (looked up) 2: T1 sequence (looked up) 2

[5] = molecular target: T3, human amylin receptor (amylin 3(a) …); assay: SPA competition against 125I-rat amylin, membranes of Amylin 3(a)/CRE-luc BHK cells (Assay V)
Procedure: as §1

[6] = molecular target: T4, human amylin receptor (amylin 3(a) receptor: human calcitonin receptor with RAMP-3) (human, UniProt P30988 25-474; O60896 24-148, limits assumed); assay: SPA competition binding on membranes of BHK cells with human calcitonin receptor + RAMP-3; displacement of 125I-rat amylin (Assay V)
T4 construct: whole, on cells; Whole cells in the luciferase assay (Assay II a); also called hAmylin-R; hAmylinR
T4 sequence (looked up) 1: T1 sequence (looked up) 1
T4 sequence (looked up) 2: T1 sequence (looked up) 2
How it was run: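 Cell membranes were prepared by homogenisation in Na-HEPES/EDTA buffer, pH 7.4, and stored at −80° C. They were then coupled to SPA beads at 35 ng/μL final and exposed to compounds in assay buffer containing CaCl2, MgCl₂, OA and Tween20. After 120 min at 25° C, plates were counted and IC₅₀ derived.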

[7] = molecular target: T4, human amylin receptor (amylin 3(a) …); assay: cell-based or functional assay
[8] = molecular target: T5, human calcitonin receptor (human, UniProt P30988 25-474); assay: cell-based or functional assay; remark: listed apart in the source
T5 sequence (looked up): T1 sequence (looked up) 1

[9] = molecular target: T6, human calcitonin receptor (human, UniProt P30988 25-474); assay: cell-based or functional assay; remark: listed apart in the source
T6 sequence (looked up): T1 sequence (looked up) 1

[10] = molecular target: T7, human amylin receptor (amylin 3(a) receptor: human calcitonin receptor co-expressed with RAMP-3) (human, UniProt P30988 25-474; O60896 24-148, limits assumed); assay: cell-based or functional assay; remark: listed apart in the source
T7 sequence (looked up) 1: T1 sequence (looked up) 1
T7 sequence (looked up) 2: T1 sequence (looked up) 2

[11] = molecular target: T7, human amylin receptor (amylin 3(a) …); assay: SPA competition binding on membranes of Amylin 3(a)/CRE-luc BHK cells, displacement of 125I-rat amylin (Assay V)
Procedure: as §1

B1: N^α1-[2-[2-[2-[[2-[2-[2-[[(4S)-4-carboxy-4-(19-carboxynonadecanoylamino)butanoyl]amino]ethoxy]ethoxy]acetyl]amino]ethoxy]ethoxy]acetyl]-[Arg17,Pro21,Pro27]-h-am … (peptide)
peptide: KCNTATCATQRLANFLRHSSPNFGAIPSSTNVGSNTY
modifications: alpha-amino group of N-terminal Lys1 acylated with C20 diacid via linker gGlu-2xOEG; disulfide bridge Cys2-Cys7 and C-terminal amide as in human amylin
notes: also called compound 24
B1 was tested, and the IC50 [1] was 1.14 nM, the “Ratio hCT/hAmylin funct. (hCTR EC50 over hAmylin-R EC50)” value [2] was 23.1 and the “hAmylin-R funct. EC50 (pM)” value [2] was 433 pM.

B2: N^ε1-[(4S)-4-carboxy-4-(19-carboxynonadecanoylamino)butanoyl]-[His14,Arg17,Pro21,Pro27,Pro34]-h-amylin (peptide)
peptide: K([γGlu-C20 diacid])CNTATCATQRLAHFLRHSSPNFGAIPSSTNVGPNTY-NH2
modifications: disulfide 2-7; N-terminus assumed
SMILES: CC[C@H](C)[C@H](NC(=O)[C@H](C)NC(=O)CNC(=O)[C@H](Cc1ccccc1)NC(=O)[C@H](CC(N)=O)NC(=O)[C@@H]1CCCN1C(=O)[C@H](CO)NC(=O)[C@H](CO)NC(=O)[C@H](Cc1c[nH]cn1)NC(=O)[C@H](CCCNC(=N)N)NC(=O)[C@H](CC(C)C)NC(=O)[C@H](Cc1ccccc1)NC(=O)[C@H](Cc1c[nH]cn1)NC(=O)[C@H](C)NC(=O)[C@H](CC(C)C)NC(=O)[C@H](CCCNC(=N)N)NC(=O)[C@H](CCC(N)=O)NC(=O)[C@@H](NC(=O)[C@H](C)NC(=O)[C@@H]1CSSC[C@H](NC(=O)[C@@H](N)CCCCNC(=O)CC[C@H](NC(=O)CCCCCCCCCCCCCCCCCCC(=O)O)C(=O)O)C(=O)N[C@@H](CC(N)=O)C(=O)N[C@@H]([C@@H](C)O)C(=O)N[C@@H](C)C(=O)N[C@@H]([C@@H](C)O)C(=O)N1)[C@@H](C)O)C(=O)N1CCC[C@H]1C(=O)N[C@@H](CO)C(=O)N[C@@H](CO)C(=O)N[C@H](C(=O)N[C@@H](CC(N)=O)C(=O)N[C@H](C(=O)NCC(=O)N1CCC[C@H]1C(=O)N[C@@H](CC(N)=O)C(=O)N[C@H](C(=O)N[C@@H](Cc1ccc(O)cc1)C(N)=O)[C@@H](C)O)C(C)C)[C@@H](C)O
notes: also called compound 67
In the case of B2, the “Ratio hCT/hAmylin funct. (hCTR EC50 against hAmylin-R EC50)” value [3] is reported as 5.2, the “hCTR funct. EC50” value [3] is reported as 0.354 nM and the “hAmylin-R funct. EC50” value [4] is reported as 0.069 nM. The IC50 [5] was 0.09 nM.

B3: N^α1-[(4S)-4-carboxy-4-(19-carboxynonadecanoylamino)butanoyl]-[Glu14,Arg17,Pro21,Pro27,Arg35]-h-amylin (peptide)
peptide: {C20 diacid-γGlu}-KCNTATCATQRLAEFLRHSSPNFGAIPSSTNVGSRTY-NH2
modifications: disulfide 2-7
SMILES: CC[C@H](C)[C@H](NC(=O)[C@H](C)NC(=O)CNC(=O)[C@H](Cc1ccccc1)NC(=O)[C@H](CC(N)=O)NC(=O)[C@@H]1CCCN1C(=O)[C@H](CO)NC(=O)[C@H](CO)NC(=O)[C@H](Cc1c[nH]cn1)NC(=O)[C@H](CCCNC(=N)N)NC(=O)[C@H](CC(C)C)NC(=O)[C@H](Cc1ccccc1)NC(=O)[C@H](CCC(=O)O)NC(=O)[C@H](C)NC(=O)[C@H](CC(C)C)NC(=O)[C@H](CCCNC(=N)N)NC(=O)[C@H](CCC(N)=O)NC(=O)[C@@H](NC(=O)[C@H](C)NC(=O)[C@@H]1CSSC[C@H](NC(=O)[C@H](CCCCN)NC(=O)CC[C@H](NC(=O)CCCCCCCCCCCCCCCCCCC(=O)O)C(=O)O)C(=O)N[C@@H](CC(N)=O)C(=O)N[C@@H]([C@@H](C)O)C(=O)N[C@@H](C)C(=O)N[C@@H]([C@@H](C)O)C(=O)N1)[C@@H](C)O)C(=O)N1CCC[C@H]1C(=O)N[C@@H](CO)C(=O)N[C@@H](CO)C(=O)N[C@H](C(=O)N[C@@H](CC(N)=O)C(=O)N[C@H](C(=O)NCC(=O)N[C@@H](CO)C(=O)N[C@@H](CCCNC(=N)N)C(=O)N[C@H](C(=O)N[C@@H](Cc1ccc(O)cc1)C(N)=O)[C@@H](C)O)C(C)C)[C@@H](C)O
notes: also called compound 16
With B3 the IC50 [6] was 0.894 nM, the “hAmylin-R funct. EC50 (pM)” value [7] was 363 pM and the “Ratio hCT/hAmylin funct.” value [8] was 6.1 ratio. The “hCTR funct. EC50 (pM)” value [8] was 2220 pM.

B4: N^ε1-[(4S)-4-carboxy-4-(19-carboxynonadecanoylamino)butanoyl]-[His14,Arg17,Pro21,Pro27,Pro34]-h-amylin (peptide)
peptide: K([γGlu-C20 diacid])CNTATCATQRLAHFLRHSSPNFGAIPSSTNVGPNTY-NH2
modifications: disulfide 2-7; N-terminus assumed
SMILES: CC[C@H](C)[C@H](NC(=O)[C@H](C)NC(=O)CNC(=O)[C@H](Cc1ccccc1)NC(=O)[C@H](CC(N)=O)NC(=O)[C@@H]1CCCN1C(=O)[C@H](CO)NC(=O)[C@H](CO)NC(=O)[C@H](Cc1c[nH]cn1)NC(=O)[C@H](CCCNC(=N)N)NC(=O)[C@H](CC(C)C)NC(=O)[C@H](Cc1ccccc1)NC(=O)[C@H](Cc1c[nH]cn1)NC(=O)[C@H](C)NC(=O)[C@H](CC(C)C)NC(=O)[C@H](CCCNC(=N)N)NC(=O)[C@H](CCC(N)=O)NC(=O)[C@@H](NC(=O)[C@H](C)NC(=O)[C@@H]1CSSC[C@H](NC(=O)[C@@H](N)CCCCNC(=O)CC[C@H](NC(=O)CCCCCCCCCCCCCCCCCCC(=O)O)C(=O)O)C(=O)N[C@@H](CC(N)=O)C(=O)N[C@@H]([C@@H](C)O)C(=O)N[C@@H](C)C(=O)N[C@@H]([C@@H](C)O)C(=O)N1)[C@@H](C)O)C(=O)N1CCC[C@H]1C(=O)N[C@@H](CO)C(=O)N[C@@H](CO)C(=O)N[C@H](C(=O)N[C@@H](CC(N)=O)C(=O)N[C@H](C(=O)NCC(=O)N1CCC[C@H]1C(=O)N[C@@H](CC(N)=O)C(=O)N[C@H](C(=O)N[C@@H](Cc1ccc(O)cc1)C(N)=O)[C@@H](C)O)C(C)C)[C@@H](C)O
notes: also called compound 67
B4 was tested, and the “hCTR funct. EC50” value [9] was 0.354 nM, the “hAmylin-R funct. EC50” value [10] was 0.069 nM and the IC50 [11] was 0.09 nM.
